Assay results: PMC6086726
pKd: −log10 of the molar value.

Biological target: Type I-F Csy surveillance complex of Pseudomonas aeruginosa PA14 (Csy1-4 with crRNA) (Pseudomonas aeruginosa PA14) (UniProt Q02ML9)
Assay: SPR

In the case of “AcrIF4 (gene 37 from phage JBD26) (natural protein)”, the pKd was 6.40.
